Laboratory results reported in publication PMC10873366, “DNA binding redistributes activation domain ensemble and accessibility in pioneer factor Sox2”.

What was measured:
[1] = target: T1, Sox2 DBD, isolated, unlabelled (UniProt P48431 37-120); assay: smFRET titration; 200 mM salt; smFRET: 165 mM KCl or 200 mM salt (Supplementary Table 4), buffer details not in material; NMR: 20 mM NaH2PO4, 50 mM NaCl, 5 mM DTT, pH 5.5, 15 C; details: protein: recombinant; tags: His6-SUMO removed by ULP1; label: Cy3B and CF660R, one on each 5' end; blunt
T1 sequence (P48431 37-120): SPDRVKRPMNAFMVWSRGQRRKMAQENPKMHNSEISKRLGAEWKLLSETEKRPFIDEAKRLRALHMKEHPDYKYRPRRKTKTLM

[2] = target: T2, Sox2 full-length, unlabelled (UniProt P48431 1-317); assay: as above; details: protein: recombinant; tags: His6-SUMO removed by ULP1; label: Cy3B and CF660R, one on each 5' end; blunt
T2 sequence (P48431 whole entry): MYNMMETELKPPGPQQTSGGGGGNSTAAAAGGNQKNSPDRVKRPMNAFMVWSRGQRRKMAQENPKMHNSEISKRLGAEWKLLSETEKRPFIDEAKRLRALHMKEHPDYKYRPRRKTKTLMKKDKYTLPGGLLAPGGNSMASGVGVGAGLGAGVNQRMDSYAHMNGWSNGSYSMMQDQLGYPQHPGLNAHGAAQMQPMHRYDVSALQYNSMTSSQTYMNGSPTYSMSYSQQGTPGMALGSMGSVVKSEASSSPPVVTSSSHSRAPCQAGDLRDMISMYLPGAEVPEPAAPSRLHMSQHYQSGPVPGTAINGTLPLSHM

[3] = target: T2, Sox2 full-length, unlabelled; assay: NMR (1H15N HSQC CSP); 30 uM Sox2, 1.1-fold DNA, 50 mM NaCl, pH 5.5, 15 C; smFRET: 165 mM KCl or 200 mM salt (Supplementary Table 4), buffer details not in material; NMR: 20 mM NaH2PO4, 50 mM NaCl, 5 mM DTT, pH 5.5, 15 C; details: protein: recombinant; tags: His6-SUMO removed by ULP1; blunt
[4] = target: Sox2 full-length labelled in the C-IDR (UniProt P48431 1-317, M120C;S315C); assay: smFRET (C-IDR expands, E 0.43 to 0.28); smFRET: 165 mM KCl or 200 mM salt (Supplementary Table 4), buffer details not in material; NMR: 20 mM NaH2PO4, 50 mM NaCl, 5 mM DTT, pH 5.5, 15 C; details: protein: recombinant; tags: His6-SUMO removed by ULP1; blunt
Sequence of Sox2 full-length labelled in the C-IDR (P48431 whole entry M120C/S315C): as the sequence (P48431 whole entry) above, with M120C, S315C counted along it

[5] = target: Sox2 DBD labelled at 37 and 120 (UniProt P48431 37-120, S37C;M120C); assay: smFRET titration; 200 mM salt; labelled protein; smFRET: 165 mM KCl or 200 mM salt (Supplementary Table 4), buffer details not in material; NMR: 20 mM NaH2PO4, 50 mM NaCl, 5 mM DTT, pH 5.5, 15 C; details: protein: recombinant; tags: His6-SUMO removed by ULP1; blunt
Sequence of Sox2 DBD labelled at 37 and 120 (P48431 37-120 S37C/M120C): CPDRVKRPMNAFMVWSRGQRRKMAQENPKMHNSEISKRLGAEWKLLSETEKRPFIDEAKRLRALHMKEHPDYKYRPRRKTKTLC

[6] = target: T1, Sox2 DBD, isolated, unlabelled; assay: smFRET titration; 200 mM salt (table; text gives 165 mM KCl); smFRET: 165 mM KCl or 200 mM salt (Supplementary Table 4), buffer details not in material; NMR: 20 mM NaH2PO4, 50 mM NaCl, 5 mM DTT, pH 5.5, 15 C; details: protein: recombinant; tags: His6-SUMO removed by ULP1; label: Cy3B and CF660R, one on each 5' end; blunt
[7] = target: T2, Sox2 full-length, unlabelled; assay: as above; details: protein: recombinant; tags: His6-SUMO removed by ULP1; label: Cy3B and CF660R, one on each 5' end; blunt

B1: 15 bp nonspecific DNA, labelled (dsDNA)
DNA 1: TCTATCTGTGTATGT
DNA 2: ACATACACAGATAGA
modifications: 5' C6-amino linker on both strands
Kd [1]: 11 ± 4 nM
Kd [2]: 6 ± 2 nM

B2: 15 bp specific DNA, unlabelled (dsDNA)
DNA 1: ACTCTTTGTTTGGAT
DNA 2: ATCCAAACAAAGAGT
binding result [3]: binds
binding result [4]: binds

B3: 30 bp specific DNA (dsDNA)
DNA 1: ATCCCATTAGCATCCAAACAAAGAGTTTTC
DNA 2: GAAAACTCTTTGTTTGGATGCTAATGGGAT
Kd [5]: 0.3 ± 0.2 nM

B4: 15 bp specific DNA, labelled (dsDNA)
DNA 1: ACTCTTTGTTTGGAT
DNA 2: ATCCAAACAAAGAGT
modifications: 5' C6-amino linker on both strands
Kd [6]: 0.3 ± 0.1 nM
Kd [7]: 0.4 ± 0.2 nM
